# Source: the supplement of paper PMC12042874
# ± gives the uncertainty stated by the source.
# Assay: amyloid nucleation score (Sup35N fusion, yeast selection) (log enrichment); library NNK1; higher = more nucleation; inactive = no reads after selection
# Method in brief: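 Peptides of 20 random codons, each fused to Sup35N, were expressed in psi-negative yeast. Cells were induced with 100 μM copper sulfate for 24 hours and grown 7 days at 30°C on medium lacking adenine and uracil, and plasmid inserts before and after selection were Illumina-sequenced. Nucleation scores are DiMSum log enrichments of output over input reads, centred on the mode score of non-aggregating sequences, and sequences under 100 input reads were excluded.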
row,Substance,amyloid nucleation score
1,SSNSPCMPVRRTADNPSPYA,0.239 ± 0.51
2,SSNWLRY,0.692 ± 0.66
3,SSPRTLRGLIYGRIKYYVLE,1.84 ± 0.35
4,SSRFDSLFVNNIMIFWVSKF,5.015 ± 0.048
5,SSRGRPLQPSIQIKYSFVMY,4.13 ± 0.095
6,SSRYFLFLAHTHWLCTMTCP,-0.064 ± 0.8
7,SSSRV,0.111 ± 0.42
8,SSSSYNSR,0.97 ± 0.62
9,SSSVCPLHSADSCVSGISAD,1.73 ± 0.64
10,SSVCFGYRAIGTIRHMFSKC,0.311 ± 0.33
11,SSWYVITATFIKDCGMTARR,4.03 ± 0.082
12,SSYCNLVASIL,0.649 ± 0.53
13,SSYFMVYYQRVTSCFMVGFL,-0.865 ± 0.48
14,STALLS,0.21 ± 0.74
15,STASQWQCHD,0.461 ± 0.41
16,STCNYLDSGGRDRCSFFNCD,0.078 ± 0.47
17,STDSLLRWIKPERDGYRFLW,-0.479 ± 0.45
18,STDVFYLV,-0.669 ± 0.39
19,STERKYLSLDKSWNVRLVLF,1.61 ± 0.23
20,STFAALNVKSCGVCLMWLLD,0.1 ± 0.84
21,STFGPCEVLVVQVDGPAYHT,-0.37 ± 0.55
22,STGPNLKVLVSSKS,-1.66 ± 0.69
23,STHSDGVGML,-0.805 ± 1.2
24,STNIGWAMINLKRYPVLRDA,-0.18 ± 0.29
25,STNWFNYSNGNTVWDIGDYL,0.4 ± 0.32

row,Substance,amyloid nucleation score
1,STVLATFHVE,0.041 ± 0.37
2,STVLQWIIGRPLYARDSLAS,-0.561 ± 0.6
3,STYSSWQDTRVFNLAMLSI,-0.68 ± 0.85
4,STYYVVRDFFLDSSTGTVYS,-0.031 ± 0.61
5,SVACPGLARMGRRSGREYNE,-1.46 ± 0.59
6,SVCTGRYPSRAHGEGASNTC,0.08 ± 0.66
7,SVDRMAYRMCMRNVRLNLCT,0.962 ± 0.37
8,SVGDVVYGEFLIAKQSAACV,0.115 ± 0.44
9,SVGFDDGPRSGTLNGFVSRR,-0.262 ± 0.6
10,SVINIGRNMISI,-0.353 ± 0.67
11,SVISRIKCRASRDGLHHGNH,0.862 ± 0.28
12,SVIVLFTIRRSWRPHSFRES,0.94 ± 0.32
13,SVLIRALFTFKLRSVERQDY,3.82 ± 0.069
14,SVMFQECFVNEFIGVHRCRD,6.324 ± 0.047
15,SVPQLVPNHFRVSWANHS,-0.05 ± 1.4
16,SVRSVRSNPRFTSHLPCSKK,-0.413 ± 0.54
17,SVRTCFNRYLKQVRVWSYAG,-0.165 ± 1.6
18,SVSMY,0.068 ± 0.27
19,SVTLCKFRKT,-0.197 ± 0.37
20,SVTLIGFILDLRTGHILWYK,-0.423 ± 0.62
21,SVVCVVSCYKIGAWLRAGG,0.648 ± 0.52
22,SVVIFHHTICLERDAVRQKF,5.02 ± 0.083
23,SVVMHSWLLLIVTSGSFMYV,0.218 ± 0.53
24,SVWCGSWVYNTLRLNMGTNL,3.01 ± 0.15
25,SVWNILLIV,0.665 ± 0.34

row,Substance,amyloid nucleation score
1,SWASKRCSPCCDGSGFPMYL,-1.37 ± 2.7
2,SWDLGREYSGHRMTCLVWLV,-0.403 ± 0.68
3,SWIRNRWHYTQ,-0.141 ± 0.72
4,SWLIRLSLYWYVNWSCMVGV,-0.009 ± 0.45
5,SWMCSPRACCLLTFNFECMC,-0.635 ± 0.5
6,SWNYLVTDAKRRDGGEERVR,-0.851 ± 1.7
7,SWRTCAPTWKVALFIWMCTS,3.39 ± 0.17
8,SWWPDGLNEMSG,1.11 ± 0.74
9,SYDISYDFWVNLVAGRLTSM,1.24 ± 0.6
10,SYEFVVRSWLSLYLINFKSS,inactive
11,SYGGGYTTSQGYGLGELTKY,0.543 ± 1.1
12,SYGMSYSVVWNWCECNSA,5.23 ± 0.053
13,SYGNCVRCSLMYKGKHMLNT,0.022 ± 0.52
14,SYKNVGRV,0.273 ± 0.86
15,SYKVTLVYSRHVVGVKVTRI,0.233 ± 0.86
16,SYLMY,-0.533 ± 0.9
17,SYMFWIPLATQWKRVLNRVW,-0.479 ± 0.54
18,SYMLVRDTLVLRCSACLLAG,inactive
19,SYNFWLRMAGRCSKM,-0.618 ± 0.6
20,SYNVMCVGYCIC,3.4 ± 0.12
21,SYRFFRGMMYLSHVIDLQSR,-0.307 ± 1.1
22,SYSIYALGSRLIVEYSYKWI,0.625 ± 0.39
23,SYTGHPMNDRWHIG,3.4 ± 0.074
24,SYTSRPYFTNIYVDYWFMVC,6.216 ± 0.05
25,SYVDRVLSSRSRWMKIVELN,0.083 ± 0.44

row,Substance,amyloid nucleation score
1,SYVSKSYLYKRGSELQAVLQ,-0.157 ± 0.65
2,SYVVTVLHNWVWEEGDLEYE,4.36 ± 0.11
3,SYYIC,0.583 ± 0.41
4,SYYQKCNAKNIF,-0.576 ± 0.4
5,TAAYRFNESVHVSNSRFMVH,0.334 ± 0.42
6,TAGRVITSCWQVLILLVNCG,-0.605 ± 0.54
7,TALRLTSSSIKIATQVDLKF,2.06 ± 0.16
8,TASHFGNKWV,0.352 ± 0.32
9,TASNHVVLSHPDSGILGIRA,-0.278 ± 0.42
10,TASRYLVVRN,0.875 ± 0.43
11,TCCNDDKRYIWCIYSRAKMN,-1.55 ± 0.42
12,TCFVVLYTKMNVFECFDLQV,-0.109 ± 0.51
13,TCGRGHVTRGYWGTMCGCNG,1.06 ± 0.72
14,TCLISCRLPDKGHGSVT,-0.069 ± 0.44
15,TCQFFRLSNRILQGDYSILM,-0.342 ± 0.48
16,TCRKFKYPL,0.372 ± 0.29
17,TCTFPKVIQSYAGRLAMPGY,-0.135 ± 0.58
18,TCVGFSGVGKGNSSIKVKEA,0.351 ± 0.42
19,TCWVGYYVCW,-0.336 ± 0.53
20,TDIFSNISYQSGQPATIDYH,0.176 ± 0.69
21,TDIVVCSCDGFWKYSYIGGL,2.18 ± 0.12
22,TDMLMLIMIRVSLIGRRTFQ,inactive
23,TDNTSFELYIWTDAFLKQTT,0.208 ± 1
24,TDNTVVVMHWFHTFSPGARK,2.08 ± 0.28
25,TDPLSYTFVTSPVMVTRGSS,-0.942 ± 0.52

row,Substance,amyloid nucleation score
1,TDWARTRSQRHVLHDSPAGL,-0.452 ± 1.4
2,TEGLKVTLIHTTPLFCP,0.239 ± 0.42
3,TEGYVFKCVGKMFLFRFSFA,-0.114 ± 0.36
4,TEIIFYLVYGWLTFRILGYN,-0.705 ± 0.43
5,TEIILYSILLSMYDLMFVVI,0.268 ± 1.4
6,TEKTVRCDLTWQTHLLLCFA,-0.369 ± 0.83
7,TERDCRCSFGTVPMCSMGNW,0.595 ± 0.34
8,TERDLYDILTKTMGIGVSRW,-0.544 ± 0.57
9,TETQECVSRYVILGGGAGVS,0.271 ± 0.71
10,TFASTS,0.002 ± 0.36
11,TFEYDT,0.332 ± 0.61
12,TFFRTTCTICCM,5.01 ± 0.053
13,TFGNLRMDVRAPTRFKDLLK,1.27 ± 0.47
14,TFIVQPFLTENPIASRFESA,0.063 ± 0.38
15,TFPGDGRFPKVSKVYDPVLE,inactive
16,TFQCCLDVCASVC,0.273 ± 0.46
17,TFQHCLRYWPNHSRLNSCRL,0.155 ± 0.25
18,TFRGNRIINQNWGYHCMWWC,5.733 ± 0.056
19,TFSDFIQKGWRFIFKYPFRC,0.686 ± 0.35
20,TFSFTAYNPCFDSFSTVGLS,-0.147 ± 0.45
21,TFSTGRACLNEVRNVGMFKM,0.75 ± 0.54
22,TFSYILDWFEVSLTHRGALI,0.192 ± 0.41
23,TFTPWKVDVLSRYRMQGCAQ,0.556 ± 0.47
24,TFWYLLNCVSRLFNF,-0.013 ± 0.57
25,TFYLFSRGSSLEIWG,5.72 ± 0.059

row,Substance,amyloid nucleation score
1,TFYNFAMSFKEVCCCMSWRG,7.143 ± 0.058
2,TFYSCHP,1.49 ± 0.37
3,TGCLVTWNIENLLRHQTFAM,0.227 ± 0.38
4,TGFLR,0.12 ± 0.4
5,TGIYYWNRKLGRYRLHVHVV,-0.15 ± 0.97
6,TGPDSISAYQHLFNCS,1.64 ± 0.54
7,TGRMGLTNRSEEFLSFLADS,-1.45 ± 0.89
8,TGSLWRLRTSACWVLNHRKS,-1.09 ± 1
9,TGWNGNLGSVVAE,-0.375 ± 0.5
10,TGYRFLSIIIAAADSDCELS,-0.706 ± 1.2
11,TGYVVVMVYCWSCLGGQSVA,0.119 ± 0.89
12,THCCSRYTPERVC,0.47 ± 0.4
13,THCLDCVPMNRVDNRCETFS,0.028 ± 0.36
14,THLVAPRSWLFIGPCRTKAS,0.385 ± 0.89
15,THQARVLNNVRALRSTFALL,2.5 ± 0.12
16,THSRFSYGVVNR,0.683 ± 1
17,THYNAGSCKMLNQAPFHRIS,-0.352 ± 0.33
18,TICVYSG,0.008 ± 0.49
19,TIGASKFMICWTDSFHLQSQ,3 ± 0.12
20,TIGFTHYCCSFKS,-1.23 ± 0.52
21,TIKEGSLITTDAKYLMGMMK,2.03 ± 0.19
22,TIKMDTQVLVYIRKRNKYCW,-0.746 ± 0.79
23,TILVNKRR,-1.28 ± 0.65
24,TILYVVARYF,-0.004 ± 0.35
25,TIMVVWCSGKDGSQVTWMQF,0.324 ± 0.34

row,Substance,amyloid nucleation score
1,TIRNMMMYYGSSKVSYRMNS,0.587 ± 0.22
2,TISLL,0.13 ± 0.43
3,TISLLTHVFLDVLWCGR,-0.779 ± 0.61
4,TIVLLNCISIRLSIRFMFIP,-0.251 ± 1
5,TIVSGTRSYNLHRSILLLHL,1.5 ± 0.23
6,TIWFAF,-0.128 ± 0.64
7,TKLAY,0.445 ± 0.49
8,TKLKNWGLNLGMASGNQSDR,-0.725 ± 0.45
9,TLAGRCINDCILEGDMSRCF,2.18 ± 0.57
10,TLCPLDFHRDTARELCPRGV,0.049 ± 0.4
11,TLCQFSSARACYAWVVFPTY,1.19 ± 0.21
12,TLDKDLDMGRP,0.625 ± 0.56
13,TLFLKDLSLLAFEFPLNISA,-0.507 ± 0.37
14,TLGTSGTSSV,-0.544 ± 0.49
15,TLHKFCLSGVHSFVGVTNST,0.06 ± 0.46
16,TLIIGYRA,0.964 ± 0.51
17,TLLIMLLYKSTILCVQPDLM,0.032 ± 0.6
18,TLLSNWVEMNPLYFMLDLPY,0.225 ± 0.48
19,TLNGFPLSISTANCEVRYDK,0.005 ± 0.9
20,TLNKARSDYFLKRSSE,-0.025 ± 1
21,TLRHALLRQTLSNLRQDGV,-0.009 ± 0.3
